Experimental data reported in patent US6689362.

How the values were obtained:
CD7 antigen (human) [1] = molecular target: CD7 antigen (human) (UniProt P09564); assay: indirect immunofluorescence, flow cytometry on MOLT-3 cells
CD7 antigen (human) [2] = molecular target: CD7 antigen (human) (UniProt P09564); assay: indirect immunofluorescence, flow cytometry on Jurkat cells
CD7 antigen (human) [3] = molecular target: CD7 antigen (human) (UniProt P09564); assay: cell-based or functional assay
CD7 antigen (human) [4] = molecular target: CD7 antigen (human) (UniProt P09564); assay: indirect immunofluorescence with FITC goat anti-mouse IgG on MOLT-3 cells, 10 µg/mL (50 nM) TXU-PAP

TXU-7-PAP immunotoxin, sequence (P10297 23-285): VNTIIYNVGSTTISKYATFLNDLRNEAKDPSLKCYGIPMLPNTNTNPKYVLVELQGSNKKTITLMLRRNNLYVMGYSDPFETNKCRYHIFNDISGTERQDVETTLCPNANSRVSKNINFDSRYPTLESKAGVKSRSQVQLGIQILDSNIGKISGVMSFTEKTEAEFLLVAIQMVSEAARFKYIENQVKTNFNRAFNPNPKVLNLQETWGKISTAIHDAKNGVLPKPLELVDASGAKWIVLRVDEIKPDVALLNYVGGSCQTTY

percent of cells stained (CD7 antigen (human) [1]) [%]	percent of cells stained (CD7 antigen (human) [2]) [%]	Substance	log kill of clonogenic MOLT-3 blasts, serial dilution clonogenic assay, at 1 µg/mL (=5 nM) (CD7 antigen (human) [3]) [logs]	percent of cells positive for cell-surface bound immunotoxin (CD7 antigen (human) [4]) [%]
99	96	monoclonal antibody TXU-7		
		TXU-7-PAP immunotoxin (from UniProt P10297 23-285)	2.8 to 3.7	98
